The series is described as follows: soluble on expression in E. coli; label from the status in PepcDB or PDB records.
For “SLEPIGRSLQGVTGRPDFQKRLEQMKEKVMKDQDVQAFLKENEEVIDQKMIEKSLNKLYEYIEQSKNCSYCSEDENCNNLLEGYHPKLVVNGRSIDIEYYECPVKRKLDQQKKQQSLMKSMYIQQDLLGATFQQVDISDPSRLAMFQHVTDFLKSYNETGKGKGLYLYGKFGVGKTFMLAAIANELAEKEYSSMIVYVPEFVRELKNSLQDQTLEEKLNMVKTTPVLMLDDIGAESMTSWVRDEVIGTVLQHRMSQQLPTFFSSNFSPDELKHHFTYSQRGEKEEVKAARLMERILYLAAPIRLDGENRRHP”, the “soluble on expression in E. coli” value was “soluble”.

Turning to “SLESEGRSPIFTHLVTSLKGLWTLRAFGRQPYFETLFHKALNLHTANGGAMFSLIYKKTLKLSSRVLDKISIGQLVSLLSNNLNKFDEGGGGAINKIQDFLQKQEYKTLEYNLTTTEVVMENVTAFWEEGFGELFEKAKQNNNNRKTSNGDDSLFFSNFSLLGTPVLKDINFKIERGQLLAVAGSTGAGKTSLLMMIMGELEPSEGKIKHSGRISFCSQFSWIMPGTIKENIIFGVSYDEYRYRSVIKACQLEEDISKFAEKDNIVLGEGGITLSGGQRARISLARAVYKDADLYLLDSPFGYLDVLTEKEIFESCVCKLMANKTRILVTSKMEHLKKADKILILHEGSSYFYGTFSELQNLQPDFSSKLMG”, the “soluble on expression in E. coli” value is “soluble”.

As for “SLFHLLGAQQNQKLKRRRFFCPVCGGELAVKLGLQKAPHFAHKQNKSCAIDIEPESAYHLEGKRQLYVWLKTQRASPILEPYIRTINQRPDVMARIKEHMLAVEYQCATIAPDVFQKRTEGFKQEGIIPQWIMGYSRLKRTASSFYQLSTFHWQFINASPYRELICYCPERRSFLRLSHIIPFYTNHSYSSVQTIPIHRAGAGDLFFTEPKPSIQYSGWTKAIHRFRHKPHRFNSKETNRLRLLFYEKRQTPFSFLPTEVFVPVRKGAVFKSPVFVWQGFLYLFMTDLGGKRAPIRFSAVLQQCKLHIHNKNIALRSECSEECLSEAVKQYIDFLCKKGFLRETQKEVYVLNQPAGGIHSMQDLIERDRSCFIE”, the “soluble on expression in E. coli” value is recorded as “soluble”.

As for “SLGKKIETHLEDMVAQANAQLKLTAPESNLEVSYQNYHRGVFSSQLQLLVKPIAGKENPWIKSGQSVIFNESVDHGPFPLAQLKKLNLIPSMASIQTTLVNNEVSKPLFDMAKGETPFEINSRIGYSGDSSSDISLKPLNYEQKDEKVAFSGGEFQLNADRDGKAISLSGEAQSGRIDAVNEYNQKVQLTFNNLKTDGSSTLASFGERVGNQKLSLEKMTISVEGKELALLEGMEISGKSDLVNDGKTINSQLDYSLNSLKVQNQDLGSGKLTLKVGQIDGEAWHQFSQQYNAQTQALLAQPEIANNPELYQEKVTEAFFSALPLMLKGDPVITIAPLSWKNSQGESALNLSLFLKDPATTKEAPQTLAQEVDRSVKSLDAKLTIPVDMATEFMTQVAKLEGYQEDQAKKLAKQQVEGASAMGQMFRLTTLQDNTITTSLQYANGQITLNGQKMSLEDFVGMFAMPALNVPAVPAIPQQ”, the “soluble on expression in E. coli” value was “soluble”.

As for “SLGMDEKSVAIVFPHHLLEDHPAAGKTSGFILVEDQLFFGDPVFGLRFHKNKLVLHRASMRYYHDHLKSRGLKAEYIQYSPDPHMGYLRDHLEGYDRVYTLELLDHELEARMKKLSMELGLEITEIEAPFIFRRNLMDGYFRDGRFLLRSFYIRERKRLSILMENSRPAGGKWTFDTENRKRMPPDLQVPAPVKLPENEYVQEAKEYVSEKFPDNPGSMDRFNYP”, the “soluble on expression in E. coli” value is “not soluble”.

For the sequence “SLHAQTFHSDSLLSQEEAAAAGDRRPAPDTWIYPLIQMKPFEIQIDEIVTETLLMEAERGAKVFLTTGYFNLTQAYMDLVLGTRAEYQILLASPEVNGFFGAKGVAGAIPAAYVHIERQFYSEVCSLGQQDRVQLQEYWRRGWTFHAKGLWLYLAGSSLPCLTLIGSPNFGYRSVHRDLEAQIAIVTESRSLQQQLHQEQEQLYLRSGVVTSATFEQPGRQVKLWVKMVTPLIKNFF”, the “soluble on expression in E. coli” value is “soluble”.

Consider “SLHIDVNNALNRAELVHSALFHEVDAIDSFCADWAEWDDTYNFVLNRNMDYVESNLVDETFPTLNVNYIVYLDRNGEVVLAKGYDLENETAMNPSQPLIERFRELSARNDLDVKKGFLRFDNSIYAFSARPILRSDETGPYAGTLIFARIVDDSFIQSPSKIAGLSFKILPVPKEKSVKFVNESALLVEFPLEDYSGRVVGTIEFYAEREALG”, for which the “soluble on expression in E. coli” value was “soluble”.

In the case of “SLHIQRKSTMSKCSADETPVCCCMDVGTIMDNSDCTASYSRVFANRAEAEQTLAALTEKARSVESEPCKITPTFTEESDGVRLDIDFTFACEAEMLIFQLGLR”, the “soluble on expression in E. coli” value was “soluble”.

Regarding “SLIDFHFHAPVKEFLDFLGEFGEPAIKYFNAKVEVKGLKETLDYYESFGIKRFVVLPIDSTTFLGRRIPNQVINLDDRIVKFISVDPSKPNADEELKRSIKEFEPVGVKLHPQLQGFHPLDERALKIYEIIDNHGLIVVFHTGTSGIGAGVKSSIRLDYGRPIYFDEIAVRFQNMKIILAHFGWPWTEEAIAIALHKPNVYLDLSGWAPRYIPQVIWSNAKRLSDKLLFGSDFPLIRPERWLEEFKSVNLSQDIKDKILKHNAEKLVKKS”, the “soluble on expression in E. coli” value is “soluble”.

As for “SLKINQEEDTVSSEKNKLCDNNNNNNMVHTRHIYNVCELNKCLRENKLIPYNNIYKMKHLYLNILDTFDENILKHVNKAHLFIDSVIQKKKNILIHCMAGISRCSSIILSYVSKKNKKGIEYNFNLLKSKYPFAHPNENFYRQLLLYEKMNYTLDGCTDYHNIYK”, the “soluble on expression in E. coli” value is recorded as “soluble”.

Consider “SLKYCIHNTRLIIGIADRVIENGSILFDQDKILKVSAHSITDADVFIDGTTFSVLPGLIDVHVHLGMDCSVDPFDTMENTEDAFTSFIAYKQGLQFLRAGITTVRNLGTKNNVDIIYKKAVESGLVIGPRVYAAGQPLIMTGGHGQPMGTEVDGKDEVIKATRQRIKEGADLIKIMATGGVLTKGNHPGAVHFNVDELKCICQEAAKASLTTAAHAIGLNGVKNAIKAGVNTIEHGYYLDKETVDTMRDLGIYLTPTLLAPTLLQKNSEHIPQHMIDKIEEIEKEHRKSFRLALERGVKIIAGTDAGTPFNNPGQLVEELKIMLEEGMTTAQAIESATYLGAKCLKVDSLIGSLEEQKLADLIVVKGNPLEDISNLKNIQHVFKGGVRLYPDQIH”, for which the “soluble on expression in E. coli” value is “soluble”.

For “SLLCGPLRLSESGETWSEVWAAIPMSDPQVLHLQGGSQDGRLPRTIPLPSCKLSVPDPEERLDSGHVWKLQWAKQSWYLSASSAELQQQWLETLSTAAH”, the “soluble on expression in E. coli” value was “soluble”.

As for “SLLTTCKSVLKLPYLEKIKVVAGEKGLNRIITWVQVVEYPEYSKWLKGGELILISGIAIKNNINSLVNFIRDINSRSLSGIVISIGPYIKEIPKEVIEIGNQLDFPIFEIPFEVKFIDVSQSICKAIFANKVNQESMENFMKDIIFRDFTFSEDILSRAVAYGYNPKTKYISFVVELHNEKDMLECDLKTKQYIEQIVIEVLGEWNKRSIHIMQYNSIILMLPKNEKRTIKNIAMNIIEEIISKAKNTSVNIGVGGEFSELRDFKISVSEAHRCLKVLKLNNDNNTVISYDELGIYKLFFQMDNLEEMKKFYLDVLKKLIDYDSKN”, the “soluble on expression in E. coli” value was “soluble”.

Consider “SLMKITRIEAIPYAIPYSRPLKFASGEVSTAEHVLVRIHTDAGICGVADTPPRPYTYGETQDSIVSVVTKVFAPQLIGMDPMDRSKVQQLLGRTVNNPTAKGALDIALWDVIGISLGTPVHKLLGGFSDSMRVSHMLGFKAAAELLEEALRFRETYGIDTFKLKVGRRPLSLDVEACHVLREGLGADTEIYLDANRGWTANEAMEVLRRTEGLGLSMLEEPCDAAEAMGRRRLVQHSSIPIVGDESVPNLGDVSRELLSGGSNAICIKTARSGFTEAQQILGLCEGLGVDVTMGNQIDTQVGSLATVTFGAAFEASSRRAGELSNYLDMTDDLLAEPLEITDGAIRVRKAPGVGAAIDADKLQKY”, for which the “soluble on expression in E. coli” value is “not soluble”.

As for “SLMKQIKHFNQNYQELRQLGKVAIGRRAGKLKAGTIILFAVDSQGKILAARKMQGVTVLAKFHPLPQYVNEDIHYMDHYHPLVQKENKLTQQAMENAREIYLRVELGNYQETQPLTPLNGAKIQWQLWKNKVQTKLKGSVE”, the “soluble on expression in E. coli” value is given as “soluble”.

“SLMLHAQHMPGQPGTPSLVFLHGFSGDCHEWQPVGEQFHGCSRLYIDLPGHGGSAAIPVDGFADVIRLLRATLISYNILKFWLVGYSLGGRVAMMAACQGIPGLCGLVVEGGHPGLQNEQARAERRLSDGRWAERFRHEPLTEVFHDWYQQPVFASLTAQQRQALTALRSQNNGETLAAMLEATSLAVQPDLREALNALAFPFYYLCGERDSKFRALAQEVAATCHVIRNAGHNAHRENPAGVVDSLAQILRL”: the “soluble on expression in E. coli” value was “soluble”.

Take “SLNEVQQAVDMQRRQLLQRLGKDFDPSMLDDKLLKEAALKGLIERTLLLQAAKDDKFAFSDQALDQLILQTPEFQVDGKFNADRFDQVIRQMNYSRMQFRQMLGQEMLIGQLRAGLAGTGFVTDNELQSFARLEKQTRDFATLAIKADASKSSVSDDEVKAFYEGHKSEFMTPEQVVVEYVELKKSSFFDQVKVKQEDLEALYQKEIANLSEQRDAAHILIEVNDKVGDEQAKAKIDEIKARLAKGEDFAALAKEFSQDIGSAATGGDLGYAGRGVYDPAFEEALYALKQGEVSAPVKTPYGYHLIKLLGVQAPEVPSLESLKPKLEDELKKQMVEQRFVEATKDLESSAYEAADLSQPAQEMGLKVQTSQPFGRSGGDGIAANRQIVQTAFSAEVLEEAANSGAIELDPDTVVVLRVKEHNKPKEQPLEQVAANIRERLAAEKAAEEAQKRGEALIAELREGRTSSAAGESWKVVEAASRGHEGVDPKLLQAVFRMQRPEAKDKPSFSGVTLANGDYVVIRLNGVSEPEEAISDDEKAMYRRFLASRSGQADFAAFRRQLQD”: the “soluble on expression in E. coli” value is given as “not soluble”.

With “SLNSVKRVGGSNRYGTAVQISKQMYSTASTAVIVGGSSYADAISAAPLAYQKNAPLLYTNSDKLSYETKTRLKEMQTKNVIIVGGTPAVSSNTANQIKSLGIS”, the “soluble on expression in E. coli” value is “not soluble”.

Regarding “SLPEKVLVAGNNVRNVAESASKAGFEVFAITKFVDADLRIYCREVERVDDSLPEKEIAKKIEDKAEEIDAKVVLCSGFETLRVRGELLCNPYGKVERVANKLKFYRELEKAGLPFPELLGEGERGIIKPVVGGGGEEVVMGEEVPKGFLKQRFVSGTPCSVSVIANGERALPLACNLIYAGWKEMNASGFRYSGNMTPFIVEEEIRKELERLAVEAVELFGLAGSVGVDFVLAEKPYILEINPRFQGSLDSVEWSCDVNLFKMHAEAFDGRLPERVRPRRYALRAILFSPRDVEIKENLAGNPFYADVPGKGERYGKNDPLVSILAAGKSREDVERRVLERRDLFLSLA”, the “soluble on expression in E. coli” value is “not soluble”.

Take “SLPLQQYRDFIDNQMLLLVAQRDRASRIFPHLYLGSEWNAANLEELQRNRVTHILNMAREIDNFYPERFTYHNVRLWDEESAQLLPHWKETHRFIEAARAQGTHVLVHCKMGVSRSAATVLAYAMKQYECSLEQALRHVQELRPIARPNPGFLRQLQIYQGILTART”: the “soluble on expression in E. coli” value is on record as “not soluble”.

In the case of “SLPLTMTVLILLLLPTGQAAPKDGVTRPDSEVQHQLLPNPFQPGQEQLGLLQSYLKGLGRTEVQLEHLSREQVLLYLFALHDYDQSGQLDGLELLSMLTAALAPGAANSPTTNPVILIVDKVLETQDLNGDGLMTPAELINFPGVALRHVEPGEPLAPSPQEPQAVGRQSLLAKSPLRQETQEAPGPREEAKGQVEARRESLDPVQEPGGQAEADGDVPGPRGEAEGQAEAKGDAPGPRGEAGGQAEAEGDAPGPRGEAGGQAEARENGEEAKELPGETLESKNTQNDFEVHIVQVENDEI”, the “soluble on expression in E. coli” value is “soluble”.

Take “SLPSINALLQAEVLSRQITSPVSGINGDIRAKKIASIADVCESMKEQLLVLVEWAKYIPAFCELPLDDQVALLRAHAGEHLLLGATKRSMVFKDVLLLGNDYIVPRHCPELAEMSRVSIRILDELVLPFQELQIDDNEYAYLKAIIFFDPDAKGLSDPGKIKRLRSQVQVSLEDYINDRQYDSRGRFGELLLLLPTLQSITWQMIEQIQFIKLFGMAKIDNLLQEMLLGG”: the “soluble on expression in E. coli” value is given as “soluble”.

Source of the values: the DeepSol protein solubility set.
